Experimental findings from US20230374147A1 (HUMMINGBIRD BIOSCIENCE PTE, published 2023) are described below.

Like-named read-outs stand apart in the source and are kept apart here.

The target in assay [1] is T1, His-tagged human BCMA (Acro Biosystems, Cat. #BCA-H522y) (human, UniProt Q02223 1-54).
T1 construct: also called huBCMA; P1; not shown: His tag
T1 sequence: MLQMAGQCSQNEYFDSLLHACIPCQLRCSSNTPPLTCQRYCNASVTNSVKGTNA
As to the kind of experiment: ELISA, coated His-tagged human BCMA. For orientation: In an ELISA, binding on a coated surface is turned into a signal by an enzyme label.

Assay [2] deals with T2, recombinant his-tagged human TACI (Sinobiological cat #11937-H08H) (human, UniProt O14836 1-165).
T2 construct: Bought protein; also called Human TACI-His; huTACI; not shown: His tag
T2 sequence: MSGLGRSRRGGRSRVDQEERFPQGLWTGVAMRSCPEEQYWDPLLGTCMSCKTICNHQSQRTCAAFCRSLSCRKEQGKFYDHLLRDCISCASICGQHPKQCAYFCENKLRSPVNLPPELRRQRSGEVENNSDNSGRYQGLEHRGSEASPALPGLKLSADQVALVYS
As to the kind of experiment: ELISA, coated His-tagged human TACI.

Assay [3] deals with T1, His-tagged human BCMA (Acro Biosystems, …). As to the kind of experiment: BLI, His-tagged human BCMA on HIS1K tip.
Assay [4] deals with T3, His-tagged mouse BCMA (Acro Biosystems, BCA-M52H3) (mouse, UniProt O88472 1-49).
T3 construct: Bought protein; not shown: His tag
T3 chain: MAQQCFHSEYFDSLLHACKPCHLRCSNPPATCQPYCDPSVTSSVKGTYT
As to the kind of experiment: BLI, His-tagged mouse BCMA on HIS1K tip. A general note: BLI is a label-free optical method that tracks binding on a fibre tip over time.

In assay [5] the target is T1, His-tagged human BCMA (Acro Biosystems, …). As to the kind of experiment: BLI, His-tagged human BCMA on HIS1K tip; R2 0.9908.
The target in assay [6] is T4, human BCMA expressed on cells (human, UniProt Q02223 1-184).
T4 construct: the cell line is named under assay; also called wildtype human BCMA
T4 sequence: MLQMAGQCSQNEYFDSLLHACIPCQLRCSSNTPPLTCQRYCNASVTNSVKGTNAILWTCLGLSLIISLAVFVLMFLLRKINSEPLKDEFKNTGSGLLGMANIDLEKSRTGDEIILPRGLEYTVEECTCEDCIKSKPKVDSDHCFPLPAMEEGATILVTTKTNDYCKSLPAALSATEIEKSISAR
As to the kind of experiment: flow cytometry, HEK293 cells stably expressing human BCMA.

Assay [7] deals with T1, His-tagged human BCMA (Acro Biosystems, …). As to the kind of experiment: BLI, His-tagged human BCMA on HIS1K tip, no APRIL; R2 0.9908.
The target in assay [8] is T5, cynomolgous macaque BCMA expressed on CHOK1 cells.
T5 construct: also called cyno BCMA on cells
As to the kind of experiment: flow cytometry, CHOK1 cells transiently expressing cynomolgus BCMA. On the technique in general: Flow cytometry measures light scatter and fluorescence of single cells or particles in a stream.

The target of assay [9] is T3, His-tagged mouse BCMA (Acro Biosystems, …). As to the kind of experiment: BLI, His-tagged mouse BCMA on HIS1K tip; R2 0.2661, below the filing's cut-off of 0.9.
Assay [10] deals with T2, recombinant his-tagged human TACI …. As to the kind of experiment: ELISA, coated His-tagged human TACI. This is another data set of the same source.
The target of assay [11] is T6, His-tagged cynomolgous macaque BCMA (Acro Biosystems, BCA-C52H7) (cynomolgus macaque, UniProt Q02223 1-54 (human entry)).
T6 construct: Bought protein; also called cyno BCMA; CyBCMA; not shown: His tag
As to the kind of experiment: ELISA, coated His-tagged cynomolgus BCMA.

Assay [12] deals with T6, His-tagged cynomolgous macaque BCMA …. As to the kind of experiment: BLI, His-tagged cynomolgus BCMA on HIS1K tip.
Assay [13] deals with T4, human BCMA expressed on cells. As to the kind of experiment: flow cytometry, H929 cells (BCMA-expressing).
Assay [14] has as its target T1, His-tagged human BCMA (Acro Biosystems, …). As to the kind of experiment: BLI, His-tagged human BCMA on HIS1K tip; R2 0.9928.
Assay [15] addresses T6, His-tagged cynomolgous macaque BCMA …. As to the kind of experiment: BLI, His-tagged cynomolgus BCMA on HIS1K tip; R2 0.9552.
Assay [16] concerns the target T1, His-tagged human BCMA (Acro Biosystems, …). As to the kind of experiment: BLI, His-tagged human BCMA on HIS1K tip, no APRIL; R2 0.9928.
The target of assay [17] is T5, cynomolgous macaque BCMA expressed on …. As to the kind of experiment: flow cytometry, CHOK1 cells transiently expressing cynomolgus BCMA. This is another data set of the same source.
The target in assay [18] is T1, His-tagged human BCMA (Acro Biosystems, …). As to the kind of experiment: BLI, His-tagged human BCMA on HIS1K tip; R2 0.9939.
Assay [19] concerns the target T6, His-tagged cynomolgous macaque BCMA …. As to the kind of experiment: BLI, His-tagged cynomolgus BCMA on HIS1K tip; R2 0.9296.
Assay [20] has as its target T1, His-tagged human BCMA (Acro Biosystems, …). As to the kind of experiment: BLI, His-tagged human BCMA on HIS1K tip, no APRIL; R2 0.9939.
The target of assay [21] is T7, BCMA:APRIL 1:1 (human, UniProt Q02223;O75888).
T7 construct: His-tagged recombinant;recombinant; also called human BCMA after incubation with human APRIL
T7 sequence (receptor, looked up): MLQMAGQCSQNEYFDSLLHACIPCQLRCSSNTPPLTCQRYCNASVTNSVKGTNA
T7 sequence (ligand, looked up): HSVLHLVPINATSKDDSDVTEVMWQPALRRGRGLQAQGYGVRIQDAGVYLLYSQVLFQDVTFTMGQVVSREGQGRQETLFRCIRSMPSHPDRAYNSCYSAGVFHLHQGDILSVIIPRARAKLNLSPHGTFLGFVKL
As to the kind of experiment: BLI, His-tagged human BCMA on tip, then human APRIL 3000 nM, then IgG; R2 0.9805.

Assay [22] deals with T8, Human HER3-His (Sino Biological, 10201-H08H) (human, UniProt P21860 20-643).
T8 construct: Specificity control; also called Human HERS-His
As to the kind of experiment: ELISA, coated His-tagged antigen.

Assay [23] deals with T6, His-tagged cynomolgous macaque BCMA …. As to the kind of experiment: ELISA, coated Cyno BCMA-His.
The target in assay [24] is T9, Cyno TACI-His (Sino Biological, 90976-C08H) (cynomolgus macaque, UniProt G7PTR7 1-165).
T9 construct: Bought protein; also called cynomolgous macaque TACI; CyTACI
T9 sequence: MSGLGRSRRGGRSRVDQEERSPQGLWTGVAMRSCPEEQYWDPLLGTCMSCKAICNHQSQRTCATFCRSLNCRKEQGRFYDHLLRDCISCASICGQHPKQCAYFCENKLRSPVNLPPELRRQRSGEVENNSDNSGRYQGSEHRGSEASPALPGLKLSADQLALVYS
As to the kind of experiment: ELISA, coated Cyno TACI-His.

Assay [25] concerns the target T10, Human BCMA-His (Sino Biological, 10620-H08H) (human, UniProt Q02223 1-54).
T10 construct: not shown: His tag
T10 sequence: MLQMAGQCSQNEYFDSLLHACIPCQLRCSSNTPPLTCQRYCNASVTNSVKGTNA
As to the kind of experiment: ELISA, coated Human BCMA-His.

The target of assay [26] is T2, recombinant his-tagged human TACI …. As to the kind of experiment: ELISA, coated Human TACI-His.
Assay [27] addresses T4, human BCMA expressed on cells. As to the kind of experiment: flow cytometry, H929 cells (BCMA+).
For assay [28] the target is unchanged. As to the kind of experiment: flow cytometry, fixed RPMI 8226 cells (BCMA+, TACI+: the cells carry both targets).
Assay [29] addresses T1, His-tagged human BCMA (Acro Biosystems, …). As to the kind of experiment: HDX-MS of the 1:1 complex against free BCMA.

B1: 539-SP2-H3 hIgG1 (antibody, V domains shown)
VH: EVQLQQSGPELVKPGASVKMSCKASGYTFTSYVIHWVKQKPGQGLEWIGYVLPYNDVIKYNEKFKGKATLTSDKSSSTAYMDLSSLTSEDSAVYYCARWGDFDEGIWFPYWGQGTLVTVSA
VL: DVLMTQTPLSLPVSLGDHASVSCRSSQSIVHTDGNTYLEWYLQKPGQSPKLLIYKVSNRFSGVPDRFSGSGSGTDFTLKISRVEAEDLGVYYCFQGSHVPWTFGGGTKLEIKR
notes: Human-mouse chimeric antibody, human IgG1 format
Consider B1, for which the “EC50 (read off the curve)” value was roughly 0.01 µg/mL in assay [1], roughly 0.7 µg/mL in assay [2] and roughly 0.06 µg/mL in [6]. Further, the “Human BCMA response” value in assay [3] was 2.36. In assay [4], the “Mouse BCMA response” value amounted to 0.29. Also, the Kd is less than 0.001 nM in assay [5], less than 0.001 nM in assay [7] and 7.25 nM in assay [9]. The binding result in [8] was “binds”.

B2: 552-LN2-E6 hIgG1 (antibody, V domains shown)
VH: QIQLVQSGPELKKPGETVKISCMASGYTFTDYSVRWVKQAPGKGLEWMGWINTETGEPTYADDFKGRFAFSLETSASTAYLQINNLKNEDTATYFCAISYYYALDYWGHGTSVTVSS
VL: DIVLTQSPASLTVSLGQRATISCRASKSVSTSVYSFLHWYQQKPGQPPKLLIYLASNLESGVPARFSGSGSGTDFTLNIHPVEEEDAATYYCQHSRELPRTFGGGTKLEIKR
notes: Human-mouse chimeric antibody, human IgG1 format; also called [8]
In the case of B2, the binding result in assay [10] is “no binding (tested: 10 ug/ml)”; in assay [17] it was “binds”. In addition, the “Human BCMA response” value in assay [3] is 2.37. Also, the figures for the “EC50 (read off the curve)” value in assay [11] and in [13] were roughly 0.08 µg/mL and roughly 0.3 µg/mL, respectively. For the same molecule, the “Cyno BCMA response” value in assay [12] is 1.55. Besides, the Kd is less than 0.001 nM in [14], 38.5 nM in [15] and less than 0.001 nM in assay [16].

B3: 552-LN1-F4 hIgG1 (antibody, V domains shown)
VH: QIQLVQSGPELKKPGETVKISCMASGYTFTDYSVRWVKQAPGKGLEWMGWINTETGEPTYAHDFKGRFAFSLETSASTAYLQINNLKDEDTSTYFCAISYYYALDYWGHGTSVTVSS
VL: DIVLTQSPASLTVSLGQRATISCRASKSVSTSGYNFLHWYQQKPGQPPKLLIYLASNLESGAPARFSGSGSGTDFTLNIHPVEEEDAATYYCQHSRELPRTFGGGTKLEIKR
notes: Human-mouse chimeric antibody, human IgG1 format; also called [7]
In the case of B3, the binding result in [10] is given as “no binding (tested: 10 ug/ml)”; in assay [17] it was “binds”. For the same molecule, the “Human BCMA response” value in [3] stood at 2.33. Further, in assay [12], the “Cyno BCMA response” value came to 0.918. Moreover, the “EC50 (read off the curve)” value in assay [13] was roughly 0.2 µg/mL. Also, the Kd in [18] was less than 0.001 nM; in assay [19], 71 nM; in assay [20], less than 0.001 nM; in [21], 9.61 nM.

B4: 1C8-6A3 hIgG1 (antibody, V domains shown)
VH: QVQLVQSGAEVKKPGASVKVSCKASGYTFTNYVMHWVKQKPGQGLEWMGYILPYNDGTKYAQKFQGKVTMTSDKSTSTVYMELSSLTSEDTAVYYCARYDYEGSFDYWGQGTLVTVSS
VL: DIQMTQSPSSLSASVGDRVTITCRASQDISNYLNWYQQKPGKAPKLLMCYTSRLHSGVPSRFSGSGSGTDFTLTISSLEQEDFATYYCQQGNTFPPTFGGGTKVEIKR
notes: also called [94]; hu1C8
Turning to B4, the binding result was “no binding (tested: 3 µg/ml (highest concentration))” in [22] and “binds” in assay [23]. Besides, the EC50 amounted to 0.028 nM in [24]; 0.005 nM in assay [25]; 1.32 nM in [26]; 0.111 nM in [27]; 0.238 nM in [28].

B5: 1C8-402 hIgG1 (LALA) (antibody)
heavy: not shown
light: DIQMTQSPSSLSASVGDRVTITCRASQDISNYLSWYQQKPGKAPKLLMRYTSRLHSGVPSRFSGSGSGTDFTLTISSLEQEDFATYYCQQGNLFPPTFGGGTKVEIKRTVAAPSVFIFPPSDEQLKSGTASVVCLLNNFYPREAKVQWKVDNALQSGNSQESVTEQDSKDSTYSLSSTLTLSKADYEKHKVYACEVTHQGLSSPVTKSFNRGEC
notes: also called S1
Consider B5, for which the binding result in [29] is listed as “binds”.

A word on the EC50 (read off the curve): it is the concentration that produces a half-maximal response. For orientation: Kd means the constant that tells how readily two partners part at equilibrium. Higher therefore signals a looser complex. The EC50 is the concentration giving half of the maximal effect.
